Results from patent US20060240001A1 (AGOURON PHARMACEUTICALS, published 2006).
Changes are numbered by the printed parent chain.

T1: recombinant human E-cadherin (R&D Systems 648-EC-100) (human, UniProt P12830 155-707)
T1 construct: Bought protein
T1 sequence (looked up): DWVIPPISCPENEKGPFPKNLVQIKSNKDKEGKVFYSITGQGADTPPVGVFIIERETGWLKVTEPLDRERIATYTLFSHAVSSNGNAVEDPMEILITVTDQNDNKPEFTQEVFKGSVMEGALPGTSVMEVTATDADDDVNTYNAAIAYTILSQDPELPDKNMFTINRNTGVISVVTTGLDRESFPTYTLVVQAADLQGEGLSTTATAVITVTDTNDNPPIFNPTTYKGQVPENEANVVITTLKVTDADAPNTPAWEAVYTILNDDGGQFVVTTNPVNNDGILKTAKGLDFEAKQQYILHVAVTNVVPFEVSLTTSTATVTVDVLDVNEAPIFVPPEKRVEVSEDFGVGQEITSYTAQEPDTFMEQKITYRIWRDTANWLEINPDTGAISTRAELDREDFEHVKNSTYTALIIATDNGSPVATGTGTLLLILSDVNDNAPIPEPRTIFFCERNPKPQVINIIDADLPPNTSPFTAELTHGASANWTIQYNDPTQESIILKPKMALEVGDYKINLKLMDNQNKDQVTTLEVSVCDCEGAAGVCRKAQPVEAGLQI

B1: 194-a02 (antibody, V domains shown)
VH: not shown
VL: QSALTQPASVSGSPGQSITISCTGTSNDVGAYNYVSWYQQHPGKAPKLILSEVNKRPSGVSNRFSGSKSGNTASLSISGLQAEDEADYYCSSFTSGLPWVLFGGGTKLTVL
notes: Tested as IgG converted from scFv
B2: 196-d10 (antibody, V domains shown)
VH: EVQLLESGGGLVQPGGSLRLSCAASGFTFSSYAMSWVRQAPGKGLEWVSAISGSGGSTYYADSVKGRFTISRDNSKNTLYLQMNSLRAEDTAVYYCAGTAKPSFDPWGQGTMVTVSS
VL: B1 VL with S91T, F93Y, S95M, L97S, P98T, W99F, V100M
notes: Tested as IgG converted from scFv; also called 196-d10 IgG
B3: 196-e06 (antibody, V domains shown)
VH: EVQLLESGGGLVQPGGSLRLSCAASGFTFSSYAMSWVRQAPGKGLEWVSAISGSGGSTYYADSVKGRFAISRDNSKNTLYLQMNSLRAEDTAVYYCAGSRTVQFDPWGQGTMVTVSS
VL: B1 VL with S91T, F93Y, S95M, L97S, P98T, W99F, V100M
notes: Tested as IgG converted from scFv; also called 196-e06 IgG
B4: 195-a09 (antibody, V domains shown)
VH: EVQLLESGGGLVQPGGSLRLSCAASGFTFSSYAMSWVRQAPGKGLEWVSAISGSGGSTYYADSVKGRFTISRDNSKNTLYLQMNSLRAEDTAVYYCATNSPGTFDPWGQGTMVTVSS
VL: B1 VL with S91T, F93Y, S95M, L97S, P98T, W99F, V100M
notes: Tested as IgG converted from scFv; also called 195-a09 IgG
B5: g-194-b09 (antibody, V domains shown)
VH: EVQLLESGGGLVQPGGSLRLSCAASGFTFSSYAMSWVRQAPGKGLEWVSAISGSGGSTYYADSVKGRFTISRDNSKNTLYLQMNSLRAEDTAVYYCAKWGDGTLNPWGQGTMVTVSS
VL: B1 VL with I49M, L50I, S76T, L101V
notes: Tested as IgG
B6: 194-e06 (antibody, V domains shown)
VH: not shown
VL: B1 VL
B7: 194-e01 (antibody, V domains shown)
VH: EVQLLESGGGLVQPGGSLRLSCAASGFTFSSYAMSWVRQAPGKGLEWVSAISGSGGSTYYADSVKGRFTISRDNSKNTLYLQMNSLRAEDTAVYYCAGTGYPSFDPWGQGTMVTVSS
VL: B1 VL with D87G, S91T, F93Y, T94R, S95A, L97S, P98T, W99F, V100M
notes: as for B1
B8: 198-a09 (antibody, V domains shown)
VH: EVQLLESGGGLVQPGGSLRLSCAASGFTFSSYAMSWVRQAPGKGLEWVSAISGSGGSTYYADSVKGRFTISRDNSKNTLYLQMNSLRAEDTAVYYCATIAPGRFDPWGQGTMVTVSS
VL: B1 VL with S13P, S91T, F93Y, S95M, L97S, P98T, W99F, V100M
notes: Tested as IgG converted from scFv; also called 198-a09 IgG
B9: 196-h02 (antibody, V domains shown)
VH: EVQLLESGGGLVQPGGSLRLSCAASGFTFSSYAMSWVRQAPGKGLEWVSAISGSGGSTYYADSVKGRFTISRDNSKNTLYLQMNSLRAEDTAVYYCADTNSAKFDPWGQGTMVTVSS
VL: B1 VL with S91T, F93Y, S95M, L97S, P98T, W99F, V100M
notes: Tested as IgG converted from scFv; also called 196-h02 IgG
B10: g-196-g03 (antibody, V domains shown)
VH: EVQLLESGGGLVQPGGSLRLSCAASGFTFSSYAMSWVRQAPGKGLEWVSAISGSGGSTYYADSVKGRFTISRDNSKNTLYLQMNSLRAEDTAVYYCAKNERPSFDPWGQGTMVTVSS
VL: B1 VL with I49M, L50I, S76T, S91T, F93Y, S95M, L97S, P98T, W99F, V100M
notes: Tested as IgG; also called germlined version of 196-g03
B11: g-194-e06 (antibody, V domains shown)
VH: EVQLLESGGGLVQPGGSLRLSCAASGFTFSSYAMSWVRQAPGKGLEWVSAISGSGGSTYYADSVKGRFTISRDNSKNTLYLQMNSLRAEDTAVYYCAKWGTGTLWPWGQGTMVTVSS
VL: B1 VL with I49M, L50I, S76T
notes: Tested as IgG
B12: scFv variant of 129-1c4 with VH CDR3 SEQ ID NO: 37 and VL CDR3 SEQ ID NO: 40 (scFv, V domains shown)
VH: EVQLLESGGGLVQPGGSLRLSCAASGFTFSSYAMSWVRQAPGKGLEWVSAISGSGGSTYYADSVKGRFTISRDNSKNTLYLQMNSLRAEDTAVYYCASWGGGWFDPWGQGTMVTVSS
VL: B1 VL
notes: His-tagged purified scFv; also called 37 / 40
B13: scFv variant of 129-1c4 with VH CDR3 SEQ ID NO: 195 and VL CDR3 SEQ ID NO: 47 (scFv, V domains shown)
VH: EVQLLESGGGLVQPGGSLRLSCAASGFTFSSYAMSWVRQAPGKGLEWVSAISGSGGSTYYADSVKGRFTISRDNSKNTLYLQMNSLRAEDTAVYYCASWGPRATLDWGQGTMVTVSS
VL: B1 VL with L97S, P98T, W99F, V100M
notes: His-tagged purified scFv; also called 195 / 47
B14: scFv variant of 129-1c4 with VH CDR3 SEQ ID NO: 37 and VL CDR3 SEQ ID NO: 299 (scFv, V domains shown)
VH: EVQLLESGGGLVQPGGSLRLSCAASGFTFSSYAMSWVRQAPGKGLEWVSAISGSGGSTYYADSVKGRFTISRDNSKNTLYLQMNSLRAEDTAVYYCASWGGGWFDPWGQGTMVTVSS
VL: B1 VL with G96D, L97R, P98A, W99F, V100N
notes: His-tagged purified scFv; also called 37 / 299
B15: scFv variant of 129-1c4 with VH CDR3 SEQ ID NO: 37 and VL CDR3 SEQ ID NO: 274 (scFv, V domains shown)
VH: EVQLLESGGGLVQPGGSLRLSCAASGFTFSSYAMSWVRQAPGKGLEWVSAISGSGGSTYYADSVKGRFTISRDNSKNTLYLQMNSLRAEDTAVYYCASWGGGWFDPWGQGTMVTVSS
VL: B1 VL with S91G, S92A, F93Y, T94S, S95A, L97S, P98T, W99F, V100M
notes: His-tagged purified scFv; also called 37 / 274
B16: scFv variant of 129-1c4 with VH CDR3 SEQ ID NO: 37 and VL CDR3 SEQ ID NO: 287 (scFv, V domains shown)
VH: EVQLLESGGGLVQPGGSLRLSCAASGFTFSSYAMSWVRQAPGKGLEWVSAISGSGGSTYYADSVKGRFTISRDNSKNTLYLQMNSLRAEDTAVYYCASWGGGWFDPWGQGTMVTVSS
VL: B1 VL with L97I, P98K, W99F, V100T
notes: His-tagged purified scFv; also called 37 / 287
B17: scFv variant of 129-1c4 with VH CDR3 SEQ ID NO: 37 and VL CDR3 SEQ ID NO: 297 (scFv, V domains shown)
VH: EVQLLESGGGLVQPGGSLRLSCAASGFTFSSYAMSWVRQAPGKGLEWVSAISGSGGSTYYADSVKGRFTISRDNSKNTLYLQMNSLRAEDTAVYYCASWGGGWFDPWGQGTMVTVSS
VL: B1 VL with G96S, L97A, P98H, W99F
notes: His-tagged purified scFv; also called 37 / 297
B18: scFv variant of 129-1c4 with VH CDR3 SEQ ID NO: 37 and VL CDR3 SEQ ID NO: 304 (scFv, V domains shown)
VH: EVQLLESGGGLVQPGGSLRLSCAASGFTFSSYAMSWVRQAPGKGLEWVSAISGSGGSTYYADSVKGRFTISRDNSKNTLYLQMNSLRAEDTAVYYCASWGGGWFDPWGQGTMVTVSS
VL: B1 VL with L97P, P98V, W99F, V100N
notes: His-tagged purified scFv; also called 37 / 304
B19: scFv variant of 129-1c4 with VH CDR3 SEQ ID NO: 37 and VL CDR3 SEQ ID NO: 303 (scFv, V domains shown)
VH: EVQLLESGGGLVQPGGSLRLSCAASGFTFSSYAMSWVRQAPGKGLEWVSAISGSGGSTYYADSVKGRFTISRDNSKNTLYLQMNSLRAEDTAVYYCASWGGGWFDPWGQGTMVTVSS
VL: B1 VL with L97R, P98A, W99F, V100N
notes: His-tagged purified scFv; also called 37 / 303
B20: scFv variant of 129-1c4 with VH CDR3 SEQ ID NO: 37 and VL CDR3 SEQ ID NO: 261 (scFv, V domains shown)
VH: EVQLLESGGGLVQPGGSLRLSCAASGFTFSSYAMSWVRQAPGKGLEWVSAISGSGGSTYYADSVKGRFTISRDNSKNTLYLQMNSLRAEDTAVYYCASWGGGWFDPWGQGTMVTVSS
VL: B1 VL with G96Q, L97I, V100A
notes: His-tagged purified scFv; also called 37 / 261
B21: scFv variant of 129-1c4 with VH CDR3 SEQ ID NO: 37 and VL CDR3 SEQ ID NO: 288 (scFv, V domains shown)
VH: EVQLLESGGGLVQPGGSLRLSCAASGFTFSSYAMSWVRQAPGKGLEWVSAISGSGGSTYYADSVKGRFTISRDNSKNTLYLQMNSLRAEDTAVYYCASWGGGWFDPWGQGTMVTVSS
VL: B1 VL with G96A, L97I, V100S
notes: His-tagged purified scFv; also called 37 / 288
B22: scFv variant of 129-1c4 with VH CDR3 SEQ ID NO: 165 and VL CDR3 SEQ ID NO: 47 (scFv, V domains shown)
VH: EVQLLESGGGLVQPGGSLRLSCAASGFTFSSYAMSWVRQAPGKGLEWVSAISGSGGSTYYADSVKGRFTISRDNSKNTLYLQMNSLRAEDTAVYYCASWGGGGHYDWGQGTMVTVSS
VL: B1 VL with L97S, P98T, W99F, V100M
notes: His-tagged purified scFv; also called 165 / 47
B23: scFv variant of 129-1c4 with VH CDR3 SEQ ID NO: 37 and VL CDR3 SEQ ID NO: 277 (scFv, V domains shown)
VH: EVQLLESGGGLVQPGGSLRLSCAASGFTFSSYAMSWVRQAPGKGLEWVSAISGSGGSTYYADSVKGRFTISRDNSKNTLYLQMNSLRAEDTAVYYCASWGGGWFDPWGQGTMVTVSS
VL: B1 VL with L97D, P98H
notes: His-tagged purified scFv; also called 37 / 277
B24: scFv variant of 129-1c4 with VH CDR3 SEQ ID NO: 37 and VL CDR3 SEQ ID NO: 295 (scFv, V domains shown)
VH: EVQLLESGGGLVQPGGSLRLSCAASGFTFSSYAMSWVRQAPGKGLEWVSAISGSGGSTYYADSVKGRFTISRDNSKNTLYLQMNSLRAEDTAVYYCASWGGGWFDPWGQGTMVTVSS
VL: B1 VL with L97K, P98T, W99F
notes: His-tagged purified scFv; also called 37 / 295
B25: scFv variant of 129-1c4 with VH CDR3 SEQ ID NO: 37 and VL CDR3 SEQ ID NO: 305 (scFv, V domains shown)
VH: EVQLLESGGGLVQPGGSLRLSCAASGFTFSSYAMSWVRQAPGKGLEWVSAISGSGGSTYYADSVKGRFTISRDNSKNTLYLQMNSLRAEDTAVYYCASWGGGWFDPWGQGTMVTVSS
VL: B1 VL with L97Q, P98Q
notes: His-tagged purified scFv; also called 37 / 305
B26: scFv variant of 129-1c4 with VH CDR3 SEQ ID NO: 37 and VL CDR3 SEQ ID NO: 43 (scFv, V domains shown)
VH: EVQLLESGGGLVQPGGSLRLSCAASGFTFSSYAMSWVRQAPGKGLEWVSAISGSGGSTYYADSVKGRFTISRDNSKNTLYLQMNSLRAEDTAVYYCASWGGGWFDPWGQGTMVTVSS
VL: B1 VL with S91T, F93Y, S95M, L97S, P98T, W99F, V100M
notes: His-tagged purified scFv; also called 37 / 43
B27: 194-g09 (antibody, V domains shown)
VH: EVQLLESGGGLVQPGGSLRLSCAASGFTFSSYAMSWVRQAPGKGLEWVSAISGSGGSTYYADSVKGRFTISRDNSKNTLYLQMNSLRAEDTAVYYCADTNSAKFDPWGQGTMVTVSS
VL: B1 VL with Q40R, D87E, F93Y, S95M, L97S, P98T, W99F, V100M
B28: 194-b09 (antibody, V domains shown)
VH: not shown
VL: B1 VL with L101V
B29: 195-e11 (antibody, V domains shown)
VH: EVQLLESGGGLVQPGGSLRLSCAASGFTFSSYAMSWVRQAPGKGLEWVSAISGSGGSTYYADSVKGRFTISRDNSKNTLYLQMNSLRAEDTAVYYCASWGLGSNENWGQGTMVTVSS
VL: B1 VL with L97I, P98V, W99F, V100N
B30: 200-h06 (antibody, V domains shown)
VH: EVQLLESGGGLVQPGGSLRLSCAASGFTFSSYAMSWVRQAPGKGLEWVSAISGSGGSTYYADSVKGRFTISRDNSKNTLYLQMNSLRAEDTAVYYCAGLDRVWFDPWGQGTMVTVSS
VL: B1 VL with S91T, F93Y, T94R, S95M, G96D, L97S, P98T, W99F, V100M
B31: 196-g03 (antibody, V domains shown)
VH: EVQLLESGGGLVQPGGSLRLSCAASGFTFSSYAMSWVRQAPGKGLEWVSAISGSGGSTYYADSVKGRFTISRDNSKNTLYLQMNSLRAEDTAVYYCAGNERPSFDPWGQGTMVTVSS
VL: B1 VL with S91T, F93Y, S95M, L97S, P98T, W99F, V100M

Molecular target: T2, human P-cadherin on the surface of cells (human, UniProt P22223 108-829)
Experiment: cell-based or functional assay

Binder	SW480 Aggregation Assay Mean IC50 [nM]
B1	1.1
B2	1.5
B3	1.9
B4	1.7
B5	0.9
B6	0.7
B7	1.3
B8	2.9
B9	3.2
B10	0.9

Molecular target: T1, recombinant human E-cadherin (R&D …)
Experiment: ELISA on coated antigen, relative KD

Binder	Kd [nM]
B1	0.682
B2	0.063
B3	0.187
B4	11.5
B5	2.16
B7	20.5
B8	19.4
B11	0.794
B10	7.51

Molecular target: T3, Recombinant human P-cadherin Fc (R&D Systems 861-PC-100) (human, UniProt P22223 108-654)
T3 construct: also called recombinant human P-cadherin/Fc fusion protein; hCad/Fc; not shown: Fc part of the bought fusion protein
Experiment: ELISA on coated antigen, relative KD

Binder	Kd [nM]
B1	0.116
B2	0.045
B3	0.062
B4	0.12
B5	0.788
B7	0.112
B8	0.078
B11	0.191
B9	0.102
B10	0.449

Molecular target: T2, human P-cadherin on the surface of cells
Experiment: epitope competition on A431 cells; competitor: biotinylated 129-1c4 IgG at 1x KD, DELFIA

Binder	IC50 [nM]
B12	2.49
B13	1.29
B14	1.97
B15	8.73
B16	10.5
B17	2.49
B18	1.1
B19	1.47
B20	1.78
B21	6.67
B22	5.11
B23	2.2
B24	0.8
B25	2.19
B26	5.67

Molecular target: T2, human P-cadherin on the surface of cells
Experiment: cell-based or functional assay
Remark: another data set of the same source

Binder	A431 Adhesion Assay Mean IC50 (nM) (n = 3)
B27	0.158
B28	0.229
B29	0.114
B30	0.168
B1	0.217
B2	0.08
B31	0.149
B3	0.117
B4	0.114
B6	0.162
B7	0.147
B8	0.097
B9	0.148

Molecular target: T2, human P-cadherin on the surface of cells
Experiment: cell-based or functional assay
Remark: another data set of the same source

Binder	SW480 Spheroid Disruption Assay, Fold Increased Disruption vs Control at 5 nM [fold]
B1	10
B2	10
B3	10
B4	10
B5	10
B7	16
B8	13
B9	10
B10	13

Molecular target: T2, human P-cadherin on the surface of cells
Experiment: cell-based or functional assay
Remark: another data set of the same source

Binder	A431 Adhesion Assay Mean IC50 (nM) (n = 2)
B27	0.73
B28	2.1
B29	0.97
B30	0.63
B31	0.39
B5	0.77
B6	0.46
B11	0.77
B10	1.05

Molecular target: T3, Recombinant human P-cadherin Fc (R&D …)
Experiment: ELISA; KD on E-cadherin over KD on P-cadherin

Binder	KD(E)/KD(P)
B1	6
B2	1.4
B3	3
B4	96
B5	3
B7	183
B8	249
B11	4
B9	326
B10	17
